{"source": "paper PMC12540712", "molecular_target": "And-1 HMG domain, 984-1129 (UniProt O75717)", "experiment": "GST-HMG pull-down of SepB, immunoblot", "conditions": "reference: wild-type SepB; sites T826", "data": [{"substance": "And-1 SepB domain, 330-984 (from UniProt O75717) T826A SepB", "values": [{"measurement": "binding against the reference", "value": "stronger"}]}]}
